Test results as given in US20250161474A1, “ANTIBODY-DRUG CONJUGATES TARGETING EGFR/C-MET AND PREPARATION METHODS AND USES THEREOF” (Sichuan Kelun-Biotech Biopharmaceutical Co., Ltd., priority 2023, published 2025).

Tests used:
[1] = Hydrophilicity of ADCs (HIC, TSKgel Butyl-NPR); type: physicochemical; conditions: for Hydrophobicity value: (RT sample − RT hydrophilic control)/(RT hydrophobic control − RT hydrophilic control), Tagitanlimab = 0, Sacituzumab = 1; for Retention time: HIC, TSKgel Butyl-NPR column, 30°C, smaller = more hydrophilic
Description: The column temperature was 30° C., the detection wavelength was 280 nm, and the flow rate was: 0.5 mL/min, mobile phase A: 1.5 mol/L (NH4)2SO4; mobile phase B: 25 mmol/L Na2HPO4, pH=7.0, 25% isopropanol alcohol (IPA). For analysis, a test sample of ADC was diluted to 1 mg/mL solution using the diluent 0.75 mol/L (NH4)2SO4 to provide a test solution. The hydrophilic control antibody was Tagitanlimab and the hydrophobic control antibody was Sacituzumab. Control antibodies were produced by Sichuan Kelun-Biotech Biopharmaceutical Co., Ltd. using the diluent to make a 1 mg/mL test solution as the system suitability solution. […] After testing, the hydrophobicity value of the test sample was calculated based on the control sample. The calculation formula was: (Retention time of test sample−Retention time of hydrophilic control)/(Retention time of hydrophobic control−Retention time of hydrophilic control).

[2] = Hydrophilicity of bispecific antibodies (HIC, TSKgel Butyl-NPR); type: physicochemical; conditions: for Hydrophobicity value: (RT sample − RT hydrophilic control)/(RT hydrophobic control − RT hydrophilic control), Tagitanlimab = 0, Sacituzumab = 1; for Retention time: HIC, TSKgel Butyl-NPR column, 30°C, smaller = more hydrophilic
Description: Column temperature: 30° C., detection wavelength: 280 nm, flow rate: 0.5 ml/min, mobile phase A: 1.5 mol/L (NH4)2SO4, mobile phase B: 25 mmol/L Na2HPO4, pH=7.0, 25% IPA. A suitable amount of the test sample was diluted with diluent (0.75 mol/L (NH4)2SO4) to make a solution of 1.0 mg/ml as the test sample solution. The control antibodies were Tagitanlimab as a hydrophilic control (disclosed in WO2017148424) and Sacituzumab as a hydrophobic control (disclosed in WO2019114666). (Both antibodies are produced by Kelun-Biotech.) Each of the control antibodies were diluted with the diluent to make a solution of 1.0 mg/ml as the system suitability solution. About […] of sample was injected and analyzed in gradient elution: 0-3 min, maintaining mobile phase A of 95% and mobile phase B of 5%; 3-40 min, mobile phase B from 5% to 100%; 40-45 min, maintaining mobile phase A of 95% and mobile phase B of 5%. The hydrophobicity value of the test sample was calculated according to the control sample with the formula: (retention time of the test sample−retention time of the hydrophilic control)/(retention time of the hydrophobic control−retention time of the hydrophilic control), and the smaller the retention time and hydrophobicity value, the better the hydrophilicity of the antibody.

Substance: Sacituzumab
- Hydrophobicity value [1]: 1.00
- Retention time [1]: 19.00 min
- Hydrophobicity value [2]: 1.00
- Retention time [2]: 19.001 min

Substance: Tagitanlimab
- Hydrophobicity value [1]: 0.00
- Retention time [1]: 11.01 min
- Hydrophobicity value [2]: 0.00
- Retention time [2]: 11.009 min
